Tests used:
p73 [1] = molecular target: T1, p73 (Homo sapiens, UniProt O15350); assay: p73 protein level (stabilization) by immunoblot in cotransfected COS7 cells; assay type: cell-based; conditions: COS7 cotransfection (FIG. 14, 15, 29)
T1 construct: expressed in transfected cells; host or cells: COS7
T1 sequence (O15350 1-636): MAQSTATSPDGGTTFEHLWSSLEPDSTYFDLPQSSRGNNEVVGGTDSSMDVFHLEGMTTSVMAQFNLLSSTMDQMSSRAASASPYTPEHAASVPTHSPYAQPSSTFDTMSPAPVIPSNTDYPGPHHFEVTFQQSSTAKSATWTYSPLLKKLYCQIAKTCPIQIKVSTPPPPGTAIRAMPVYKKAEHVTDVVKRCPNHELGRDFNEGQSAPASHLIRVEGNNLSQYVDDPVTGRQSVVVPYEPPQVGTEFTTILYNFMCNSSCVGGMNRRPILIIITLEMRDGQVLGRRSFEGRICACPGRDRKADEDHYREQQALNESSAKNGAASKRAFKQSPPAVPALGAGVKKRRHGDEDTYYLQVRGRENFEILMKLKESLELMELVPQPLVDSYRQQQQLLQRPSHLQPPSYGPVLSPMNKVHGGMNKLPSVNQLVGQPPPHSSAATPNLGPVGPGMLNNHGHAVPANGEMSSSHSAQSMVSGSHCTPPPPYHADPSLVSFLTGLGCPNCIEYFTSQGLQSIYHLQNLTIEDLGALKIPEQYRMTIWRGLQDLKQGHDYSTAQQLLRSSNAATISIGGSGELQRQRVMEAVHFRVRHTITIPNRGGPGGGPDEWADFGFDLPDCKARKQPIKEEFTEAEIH

p73 [2] = assay: Luciferase reporter assay, p73-dependent transcriptional activation in H1299 cells; assay type: cell-based, human
Protocol: (§1) H1299 cells deficient in p53 were seeded at a density of 5×10^4 cells/well onto a 12-well tissue culture dish and transiently transfected with 100 ng of luciferase reporter construct (which carried a p53/p73-responsive element derived from a p21^WAF1, Bax, or MDM2 promoter), 10 ng of pRL-TK Renilla luciferase cDNA, and 25 ng of given expression plasmid (p53, HA-p73α, or HA-p73β) together with or without varying amounts of IKK-α or FLAG-IKK-β expression plasmids. The total amount of DNA per transfection was kept constant (510 ng) with a pcDNA3 empty plasmid. After 48 hours from the transfection, the cells were washed twice with ice-cold PBS and suspended in passive lysis buffer (Promega). Both firefly and Renilla luciferase activities were assayed by use of dual-luciferase reporter assay system (Promega) according to the instruction. […] intensity was measured with TD-20 luminometer (Turner Design). The firefly luciferase signal was normalized based on the Renilla luciferase signal. Results obtained from at least 3 transfections were indicated by mean value±standard deviation.
To explore the functional implication of interaction between IKK-α and p73, the effect of IKK-α on p73-mediated transcriptional activation was first examined. H1299 cells deficient in p53 were transfected with a HA-p73α or HA-p73β expression plasmid and a luciferase reporter construct under the control of a p21^WAF1, Bax, or MDM2 promoter together with or without varying amounts of IKK-α expression plasmids. […] By contrast, increase in p53-responsive reporter gene activity was not induced by IKK-α (FIG. 22). To examine the specificity of p73-dependent transcriptional activation mediated by IKK-α, whether IKK-β enhanced p73 transcriptional activity to p53/p73-responsive promoters was confirmed.

p53 = assay: Luciferase reporter assay, p53-dependent transcriptional activation in H1299 cells; assay type: cell-based, human; conditions: H1299, coexpression with p53 (FIG. 22)
Protocol: as §1
To explore the functional implication of interaction between IKK-α and p73, the effect of IKK-α on p73-mediated transcriptional activation was first examined. […]

H1299 cells = assay: Apoptosis assay (trypan blue / Red-Gal double staining), p73α-dependent; assay type: cell-based, human; conditions: H1299, coexpression with HA-p73α, 48 hours (FIG. 25-27)
Protocol: To detect apoptosis via p73α and IKK overexpression, H1299 cells were seeded at a density of 1.5×10^4 cells/well onto a 6-well tissue culture dish. Next day, the cells were transiently transfected with 50 ng of β-galactosidase expression plasmid and 50 ng of HA-p73α expression plasmid in the presence or absence of varying amounts of IKK-α or IKK-β expression vectors (100, 200, or 400 ng). After 48 hours of the transfection, the cells were washed with ice-cold PBS and stained at room temperature for 10 minutes with 0.4% trypan blue (PBS solution). Then, the cells were washed twice with PBS, then fixed for 10 minutes in PBS containing 2.5% glutaraldehyde, 1 mM magnesium chloride, and 2 mM EGTA, and stained for 2 hours with Red-Gal (Research Organics) according to the method described in Bayon, Y. et al., Mol. Cell. Biol. 23: 1061-1074 (2003). Red-Gal was used as a marker for visualizing the transfected cells to evaluate the degree of apoptosis occurring in the transfectants. […] Results were indicated by an average of three independent transfections (each performed three times or more).
Potential effect(s) of IKK-α on p73-dependent biological functions such as the regulation of apoptosis was examined. […] After 48 hours of the transfection, the cells were subjected to double staining with trypan blue (nonviable cells) and Red-Gal (transfected cells), and the number of purple cells was scored.

B1: IKK-α: IKK-α protein, amino acid sequence SEQ ID NO: 24, expressed from plasmid; apoptosis enhancer (protein, listed as Homo sapiens)
chain: MERPPGLRPGAGGPWEMRERLGTGGFGNVCLYQHRELDLKIAIKSCRLELSTKNRERWCHEIQIMKKLNHANVVKACDVPEELNILIHDVPLLAMEYCSGGDLRKLLNKPENCCGLKESQILSLLSDIGSGIRYLHENKIIHRDLKPENIVLQDVGGKIIHKIIDLGYAKDVDQGSLCTSFVGTLQYLAPELFENKPYTATVDYWSFGTMVFECIAGYRPFLHHLQPFTWHEKIKKKDPKCIFACEEMSGEVRFSSHLPQPNSLCSLIVEPMENWLQLMLNWDPQQRGGPVDLTLKQPRCFVLMDHILNLKIVHILNMTSAKIISFLLPPDESLHSLQSRIERETGINTGSQELLSETGISLDPRKPASQCVLDGVRGCDSYMVYLFDKSKTVYEGPFASRSLSDCVNYIVQDSKIQLPIIQLRKVWAEAVHYVSGLKEDYSRLFQGQRAAMLSLLRYNANLTKMKNTLISASQQLKAKLEFFHKSIQLDLERYSEQMTYGISSEKMLKAWKEMEEKAIHYAEVGVIGYLEDQIMSLHAEIMELQKSPYGRRQGDLMESLEQRAIDLYKQLKHRPSDHSYSDSTEMVKIIVHTVQSQDRVLKELFGHLSKLLGCKQKIIDLLPKVEVALSNIKEADNTVMFMQGKRQKEIWHLLKIACTQSSARSLVGSSLEGAVTPQTSAWLPPTSAEHDHSLSCVVTPQDGETSAQMIEENLNCLGHLSTIIHEANEEQGNSMMNLDWSWLTE
- amount of HA-p73α (p73 [1]): remarkably increased the amount of HA-p73α
- luciferase activity without p73 (p73 [2]; H1299, IKK-α alone): almost no effect on luciferase activity
- p73-dependent transcriptional activation of p21WAF1, Bax, MDM2 promoter reporters (p73 [2]; H1299, coexpression with HA-p73α or HA-p73β (FIG. 20, 21, 23)): Remarkable increase in p73-dependent transcriptional activation was dose-dependently observed
- induction of endogenous p21WAF1 mediated by p73α (p73 [2]; H1299, immunoblot (FIG. 24)): remarkably up-regulated
- p53-responsive reporter gene activity (p53): not induced
- number of cells undergoing p73α-dependent apoptosis (H1299 cells): increased the number of cells undergoing apoptosis
